The nanobody polyreactivity screen of Harvey et al. (2022)

experiment: yeast display, Sf9 membrane polyspecificity reagent, FACS + sequencing; frameworks hold sequencing errors
Summary of the method: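 After 36–48 hours of galactose induction, yeast (Saccharomyces cerevisiae BJ5465) displaying a synthetic nanobody library were stained at 4 °C for 1 hour with 10% biotinylated, detergent-solubilized Sf9 membrane reagent. Streptavidin microbeads enriched the stained cells before FACS sorting into low and high (top ~1%) gates on anti-HA and streptavidin fluorescence. Each clone's polyreactivity label reflects its gate of origin.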

| Sequence | polyreactivity (PSR sort gate) |
| --- | --- |
| QVQLVESGGGLVQAGGRLRLSCAASGSSSTPYTMGWYRPAPGKERELVAAISWIGDTTSYADSVKGRFTISRDNAKNTVYLQMNSLKPEDTAVYYCNAEHRGYDYWGHGTQVTVSS | low polyreactivity |
| QVQLVESGGGLVQAGGRLRLSCAASGSTFFIYAMRCFRQAPGKERELVAAISSRGGRTYYADSVKGRFTISRDNAKNTVYLQMNSLKPEDTAVYYCYFLIYSKGQAFDYWGQGTQVSVSS | high polyreactivity |
| QVQLVESGGGLVQAGGRLRLSCAASGSTFGAYAMGWYRQAPGKERELVAAIRGSGAGTYYADSVKGRFTISRDNAKNTVYLQMNSLKPEDTAVYYCNTANLRSLGWTFRRYSYEYWGQGTQVTVSS | high polyreactivity |
| QVQLVESGGGLVQAGGRLRLSCAASGSTFLVYAMGWYRQAPGKERELVAVIRWRDGSTYYADSVKGRFTISRDNAKNTVYLQMNSLKPEDTAGYYCAAVYWGEEYEYWGQGTQVTVSS | low polyreactivity |
| QVQLVESGGGLVQAGGRLRLSCAASGSTFRLYAMGRYRQAPGKERELVAAIRGSGGSTYYADSVKGRFTISRDNAKNTVYLQMNSMKPEDNAVYYCAARVVVARRSYVGYGYWGQGTQVTVSS | high polyreactivity |
| QVQLVESGGGLVQAGGRLRLSCAASGSTFVKNTMGWYIQPPGKERELVAAISSRGGSTYYADSVKGRFTISRDNEKNTVYFQMNSLKPEDTAVYYCAKDGRVSRDFDYWGQGTQVTVSS | low polyreactivity |
| QVQLVESGGGLVQAGGRLRLSCAASGSTFVRYAMGWYRQAPGKERELVAAISSSGATTYYADSVKGRFTISRDNAKNTVYLQMNSLKPEDTAVYYCAKYGRATRGLDNYWGQGTQVTVSS | high polyreactivity |
| QVQLVESGGGLVQAGGRLRLSCAASGSTFYQYAMGWYRQAPGKERELVAAISKSGGSTYYADSVKGRFTISRDNAKNTVYLQMNSLKPEDTAVYYCATRWIKGRKMVYWGQGTQVTVSS | high polyreactivity |
| QVQLVESGGGLVQAGGRLRLSCAASGSTFYRYAMGMYRPAPGKERELVAAINRSGVTTYYADSVKGRFTISRDNAKNTVYLQMNSLKPEDTAVYYCAAVLGRGLDYYYLGQGTQVTVSS | high polyreactivity |
| QVQLVESGGGLVQAGGRLRLSCAASGSTIRRYAMRWYRQAPGKERELVAAIRQRGTSTYYADSVKGRFTISRDNAKNTVYLQMNSLKPEDTAVYYCAADSYSSRGNYWGQGTQVTVSS | high polyreactivity |
| QVQLVESGGGLVQAGGRLRLSCAASGTRYYAMGWYRQAPGNERELVAGIRWRDGGTYYADSVKGRFTISRDNAKNTVYLQMNSLKPEDTAVYYCNAAQSVELGYDYWGQGTQVTVSS | high polyreactivity |
| QVQLVESGGGLVQAGGRLRLSCAASGTTFVYYAMGWYRQAPGKERELVAAITASGGRTYYADSVKGRFTISRDNSKNTVYLEMNSLKPDDTAVYYCNARARKSIRVGGYNYWGQGSQVTVSS | high polyreactivity |
| QVQLVESGGGLVQAGGRLRLSCAASVFIFGIYASGWYRQAPGKDRELVAAITWDTGSTYYADSVKGRFTISRDNAKNTVYLQMNRLKPEDTAVYYRAVDGWDLTYYDSYYSWGQGTQVTVSS | high polyreactivity |
| QVQLVESGGGLVQAGGRLRLSCAASVGTFRPYAMGWYRQAPGKERELVAAISYTGSTYYADSVKGRFTISRDNAKNTVYLQMNSLKPADTAVYYCAKDFWYPPRFDYWGHGTQVTVSS | low polyreactivity |
| QVQLVESGGGLVQAGGRLRLSCAATGFTFTYYPMGWYRQATGKETEFVAAITWNSGTTYYADSVKGRFTISRDNAKNTVYLQMISLKPEDTAVYYCNALWHRQRWSRGDYWRQGTQVTVSS | high polyreactivity |
| QVQLVESGGGLVQAGGRLRLSCASSGGTLSRYAMGWYRQAPGKERELVAAINWIGGRTSYADSVKGRFTISRDNAKNTVYLQMKSLKPEDTAVYYCAAQYYYAPPWRKYDYWGQGTQVTVSS | high polyreactivity |
| QVQLVESGGGLVQAGGRLRLSCASTGLTLHGNAMGWYRQAPGKERELVATISSSGGSTFYADSVKGRFTISRDNAKNTDYLQMNSLKPEDTAVYYCNADAPYSDDYYVRFDYWGQGTQVTVSS | low polyreactivity |
| QVQLVESGGGLVQAGGRLRLSCPASGGTFYIYVMGWYRQAPGKESELVAAITSGDSTNYADSVKGRFTISRDNAKNTVYLQMNSLKPEDTAVYYCAVGITQDPLMYYPFFFHYDYWGQGTQVTVSS | low polyreactivity |
| QVQLVESGGGLVQAGGRLRLSFAASGSIFVFYVMGWYRQAHGKERELVAAISNSGSSTYYADSVKGRFTISRDNAKNTVYLQINSLKPEDTAVYYCAAEYKIPVGFDYWGQGTQVTVSS | low polyreactivity |
| QVQLVESGGGLVQAGGRLRLSFAASGSIFYRNVLGWYREAPGKERELVATISRGGTTNYADSVKGRFTISRDNAKNTVYLQMNSLKPEDTAVYYCAAPIGDVYVGKGYDSWGQGTQVTVSS | low polyreactivity |

| Sequence | polyreactivity (PSR sort gate) |
| --- | --- |
| QVQLVESGGGLVQAGGRLRLSSAASGFIFWYYAMGWYRQEPGKERELVAAITSGGNTNYADSVKGRFTISRDNAKNTVYLQMNSLKPEDTAVYYCATGRASGREHDSWGQGTQVTVSS | low polyreactivity |
| QVQLVESGGGLVQAGGRLRLTCAASGINFRSYAMGWYRQATGKERELVAGISLSGGSTYYADSVKGRFTISRDNAKNSDYLQMNSLKPEDTAVYYCATRYHYFGALRYGYCGQGTQVTVSS | high polyreactivity |
| QVQLVESGGGLVQAGGRLRLTCAASGRIFFWYVMGWYRQATGKERELVAAISSGGRTYYADAVKGRFTISRDNAKNTVYLQMNSLKPEDTAVYYCNVEEYHVRADIGYSNYGYWGQGTQVTVSS | low polyreactivity |
| QVQLVESGGGLVQAGGRLRLTCAASGSTLPLNAMGWYRQAPGKEREFVASITYSGGNTYYADSVKGRFTISRDNAKNTVYLQMNSLKPEDTAVYYCAVDEYGIWVGWVPYATFGMNYWGQGTQVTVSS | high polyreactivity |
| QVQLVESGGGLVQAGGRLRLTCSASGFIIRFYAMGWYRQATGKEREFVASISRRAGRTYYADSVKGRFTISRDNAKNTVYLQMNSLKPEDTAVFYCAASGFGSFRYSSTYDYWGQGSQVTVSS | high polyreactivity |
| QVQLVESGGGLVQAGGRLSLSCAASGSIFEKNAIGWYIQAPGKERELFAAISSSGGRTNYADSVKGRYTISRDNAKITVYFQMNSLKPEDTAVYYCAAYRRGHRYPGYEYWGQGTQVTVSS | high polyreactivity |
| QVQLVESGGGLVQAGGRLSLSCAASGSIFRNNTMGWYRQAPGKERELVAAISGRGTPTSYADSVKGRFTISRDNAKNTVYLQMNSLKPEDTAVYYCAAVYYWRPGWYVRFDYWGQGTQVTVSS | low polyreactivity |
| QVQLVESGGGLVQAGGSHGLSCAASGSTFYYNAMGWYRPAPGKERELVARISRSGGSTYADSVKGRFTISRDNAKNTVYLLMNSLKPEDTAVYYCNADAYGTPEFTSYAVRYDHWGQGTQETVSS | low polyreactivity |
| QVQLVESGGGLVQAGGSHRLRCAASGITLLLNAMGWYRQAPGKERELVAAISEGGGSTYYAHSVKGRFTISRDNAKNTVYLQMNSLKPEDTAVYYCNADRVYRVPSEYDSWGQGTQVTVSS | low polyreactivity |
| QVQLVESGGGLVQAGGSHRLSCAASGFIFPYYTMGRYRQAPEKERELVAANRYSAGRTYYADSVKGRFTISRDIAKNTVYLQLNSLKPVDTAVYYCNAVSSGDMDYWGQGTQVTVSS | high polyreactivity |
| QVQLVESGGGLVQAGGSHRLSCAASGFTFWDYAMGWYRKAPGKEREMVAAITSRGTRTYYADSVKGRFTISRDNAKNTVYLQMNSLKPEDTDVYYCATAIPDPDYIHNYWGQGTQVTVSS | high polyreactivity |
| QVQLVESGGGLVQAGGSHRLSCAASGITFRRNTMGWYRQAPGKERELVATISWRGGNTFYADSVKGRFTFSRDNAKNTVYLQMNSLKPEDTAVYYCNARGYGTLIVRRERMDYWGQGTQVTVSS | high polyreactivity |
| QVQLVESGGGLVQAGGSHRLSCAASGITLGRYAMGWYRQAPGKEREFVAAISSWSGGSTTYADSVKGRFTISRDNAKNTVYLQMNSLKPEDTAVYYWNARRYYGRYYLGHSDYDYWGQGTQVTVSS | high polyreactivity |
| QVQLVESGGGLVQAGGSHRLSCAASGLTFFPYAMGWYRQAPGKERELVAAITTSDGTTYYADSVKGRFTISRDNAKNTVYLQMNSLKPEDTAVYYCAAVYSPRSVWWYDYWGQGTQVTVSS | low polyreactivity |
| QVQLVESGGGLVQAGGSHRLSCAASGLTFYQYSMGWYRQAPGKERELVAAISKSAGSTYYADSVKGRFTISRDNAKNTVYLQMNSLKPEDTAVYYCAARVLRLRYDYWGQGTQVTVSS | high polyreactivity |
| QVQLVESGGGLVQAGGSHRLSCAASGNAMGCYRQAPGKERELVAAITYGGTTTYYADSVKGRFTISRDNAKNTVYLQMNSLKPEDTAVYYCAADYVFVATPLRYDYWGQGTQVTVSS | low polyreactivity |
| QVQLVESGGGLVQAGGSHRLSCAASGNTFPLYAMGWYRQAPGKERELVAAISQRGGSTYYADSVKGRFTISRDNAKNTVYLQMNSLKPEDTAVYYCAATWADEYQYRRYYYWGHGTQVTVSS | high polyreactivity |
| QVQLVESGGGLVQAGGSHRLSCAASGRIFSVNAMGWYRQAPGKERELVASISWSGGSTYYADSVKGRFTISRDNAKNPVYLQMNSLKPEDTAVYYCNARIDSYGLDFDYWGQGTQVTVSS | low polyreactivity |
| QVQLVESGGGLVQAGGSHRLSCAASGRTFRRNTMGWYRQAPGKERELVAAISSSGSSTYYADSVKGRFTISRDNAKNSVYLQMNSLKPEDTAVYYCAATGYPRFGYWGQGTQVTVSS | high polyreactivity |
| QVQLVESGGGLVQAGGSHRLSCAASGRTFRYYTMGWYRQAPGKEREFVAAISSTGGTYYADSVKGRFTISRDNAKNTVYLQMNSLKPEDTAVYYCAKVYFWGALSPDKYDEDYWGQGTQVTVSS | low polyreactivity |
